Results: PMC3060787
Like-named read-outs stand apart in the source and are kept apart here.

How the values were obtained:
Assay in all cases: smFRET
[1] = biological target: T1, Taq MutS(C42A,T469C)-Cy3 (Thermus aquaticus, UniProt Q56215 1-811, C42A;T469C)
T1 sequence: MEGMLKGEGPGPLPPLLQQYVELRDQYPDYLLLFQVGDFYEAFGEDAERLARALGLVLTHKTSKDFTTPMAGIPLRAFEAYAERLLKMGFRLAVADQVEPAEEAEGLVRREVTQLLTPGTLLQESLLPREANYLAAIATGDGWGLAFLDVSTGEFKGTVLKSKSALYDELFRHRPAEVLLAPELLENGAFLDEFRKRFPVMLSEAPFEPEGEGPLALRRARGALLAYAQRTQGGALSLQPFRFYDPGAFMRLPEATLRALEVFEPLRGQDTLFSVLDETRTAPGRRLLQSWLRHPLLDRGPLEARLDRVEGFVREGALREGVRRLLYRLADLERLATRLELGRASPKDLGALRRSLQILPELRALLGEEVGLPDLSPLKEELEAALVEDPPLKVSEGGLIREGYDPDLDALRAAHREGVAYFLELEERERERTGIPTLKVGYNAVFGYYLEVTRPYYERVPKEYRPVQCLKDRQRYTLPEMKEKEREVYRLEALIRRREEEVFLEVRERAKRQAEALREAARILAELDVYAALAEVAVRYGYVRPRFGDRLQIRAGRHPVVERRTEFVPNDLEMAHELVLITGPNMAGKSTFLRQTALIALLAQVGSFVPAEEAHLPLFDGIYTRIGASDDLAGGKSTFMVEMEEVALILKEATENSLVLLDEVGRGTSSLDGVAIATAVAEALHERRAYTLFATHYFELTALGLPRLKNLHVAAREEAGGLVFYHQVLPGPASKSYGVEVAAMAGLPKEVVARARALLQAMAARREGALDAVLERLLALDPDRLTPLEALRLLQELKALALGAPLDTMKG

[2] = biological target: T1, Taq MutS(C42A,T469C)-Cy3; remark: listed apart in the source
[3] = biological target: T1, Taq MutS(C42A,T469C)-Cy3; remark: listed apart in the source
[4] = biological target: T1, Taq MutS(C42A,T469C)-Cy3; remark: listed apart in the source

B1: 74 bp duplex, both ends blocked (dsDNA)
DNA 1: ATTCAGCTGTACCCAATTCACTCTACGACGAGGCGTCGCTAGCGTCGCATCCTGCTGTAAGTTTCATGTCCACC
DNA 2: GGTGGACATGAAACTTACAGCAGGATGCGACGCTAGCGACGCCTCGTCGTAGAGTGAATTGGGTACAGCTGAAT
modifications: amino-C6 dT (Cy5 site)
- Kd [1]: 128 ± 12 nM

B2: +dT mismatch DNA (74/75 nt), both ends blocked (dsDNA)
DNA 1: B1 DNA 1
DNA 2: GGTGGACATGAAACTTACAGCAGGATGCGACGCTAGCGTACGCCTCGTCGTAGAGTGAATTGGGTACAGCTGAAT
modifications: amino-C6 dT (Cy5 site, nt 45 from 5' biotin)
- Kd [2]: 16.2 ± 2.1 nM

B3: +dT mismatch DNA with dT10 ssDNA tail (74/85 nt) (dsDNA)
DNA 1: B1 DNA 1
DNA 2: TTTTTTTTTTGGTGGACATGAAACTTACAGCAGGATGCGACGCTAGCGTACGCCTCGTCGTAGAGTGAATTGGGTACAGCTGAAT
modifications: amino-C6 dT (Cy5 site)
- binding result [3]: binds

B4: 100 bp duplex (dsDNA)
DNA 1: GTTACCGATACGATACGAATAGGCATATCTGCACGTTTCTCACGAGGCGCCGCTAGACTGATCTGGAGCTTAATTGCCTGCCGGAGCTAAAGACGTTCCA
DNA 2: TGGAACGTCTTTAGCTCCGGCAGGCAATTAAGCTCCAGATCAGTCTAGCGGCGCCTCGTGAGAAACGTGCAGATATGCCTATTCGTATCGTATCGGTAAC
modifications: amino-C6 dT (Cy5 site)
- binding result [4]: binds

B5: 100 bp +dT mismatch DNA (100/101 nt) (dsDNA)
DNA 1: B4 DNA 1
DNA 2: TGGAACGTCTTTAGCTCCGGCAGGCAATTAAGCTCCAGATCAGTCTAGCGTGCGCCTCGTGAGAAACGTGCAGATATGCCTATTCGTATCGTATCGGTAAC
modifications: amino-C6 dT (Cy5 site)
- binding result [4]: binds
